Experimental data: publication PMC8748748

Assays:
Experiment in all cases: potentiometry
[1] = target: Lys1 (position 1, -----KCNTAT)
[2] = target: Nterm1 (position 1, -----KCNTAT)
[3] = target: Tyr37 (position 37, VGSNTY-----)
His18 (position 18, …) = target: His18 (position 18, …)
[4] = target: His18 (position 18, ANFLVHS----)
[5] = 298 K, 40 mM SDS (stated as the ionic strength), none (ligand 0.5 mM, Cu(II):ligand 0.9:1), Cu(II)-bound peptide (1:1 complex) in SDS, the titrating residue is not coordinated to the metal
[6] = 298 K, 40 mM SDS (stated as the ionic strength), none (ligand 0.5 mM; electrode calibrated by titrating HClO4 with NaOH), metal-free peptide in SDS, helical-like structure by CD
[7] = not stated for the quoted titrations (the Figure 4 competition plot caption gives T = 298 K), metal-free peptide in water, cited from earlier work

Row | Protein | pKa [1, 5] | pKa [1, 6] | pKa [1, 7] | pKa [2, 6] | pKa [2, 7] | pKa [3, 5] | pKa [3, 6] | pKa [3, 7] | pKa (His18 (position 18, …); [6]) | pKa (His18 (position 18, …); [7]) | pKa [4, 6] | pKa [4, 7] | pKa [2, 5]
1 | KCNTATCATQRLANFLVRSSNNLGPVLPPTNVGSNTY [Rat amylin (islet amyloid polypeptide, IAPP) (Rattus norvegicus)] | 10.04 | 10.44 | 10.20 | 7.85 | 7.13 | 9.61 | 10.08 | 9.49 | – | – | – | – | –
2 | KCNTATCATQRLANFLVHSSNNFGPILPPTNVGSNTY | 10.89 | 10.92 | 10.32 | 8.39 | 7.53 | 10.28 | 9.93 | 9.67 | 6.76 | 5.79 | – | – | –
3 | KCNTATCATQRLANFLVHSSNNFGPILPPTNVGSNTY [Ac-pramlintide (N-acetylated pramlintide) (Homo sapiens (synthetic analogue); A25P;S28P;S29P)] | – | 10.50 | – | – | – | – | 10.01 | – | 7.57 | – | – | – | –
4 | KCNTATCATQRLANFLVHS [Amylin(1-19), membrane-disrupting fragment of human amylin (IAPP) (Homo sapiens)] | 10.05 | 9.88 | 10.83 | 8.18 | 7.97 | – | – | – | – | – | 7.28 | 6.04 | 8.98
